In paper PMC8324831 (2021):
Numbering of substitutions follows the chain as printed.

B1: sybody SR4 (VHH)
VHH: QVQLVESGGGLVQAGGSLRLSCAASGFPVYSWNMWWYRQAPGKEREWVAAIESHGDSTRYADSVKGRFTISRDNAKNTVYLQMNSLKPEDTAVYYCYVWVGHTYYGQGTQVTVS
modifications: biotin by an amine-reactive crosslinker (only where immobilised on the SA sensor)
B2: sybody LR1 (VHH)
VHH: QVQLVESGGGSVQAGGSLRLSCAASGSISSITYLGWFRQAPGKEREGVAALITDSGRTYYADSVKGRFTVSLDNAKNTVYLQMNSLKPEDTALYYCAAAEWGYEWPLYYASSWYWGQGTQVTVS
B3: sybody LR5 (VHH)
VHH: B2 VHH with D54S, S55N, E100T, E104H, Y108G, Y109A, A110W, S111D, S112Y
B4: sybody MR4 (VHH)
VHH: QVQLVESGGGLVQAGGSLRLSCAASGFPMYAWEMAWYRQAPGKEREWVAAIRSMGVHTHYSDSVKGRFTISRDNAKNTVYLQMNSLKPEDTAVYYCNVKDFGGHQAYYDYWGQGTQVTVS
B5: sybody MR17 (VHH)
VHH: QVQLVESGGGLVQAGGSLRLSCAASGFPVEVWRMEWYRQAPGKEREGVAAIESYGHGTRYADSVKGRFTISRDNAKNTVYLQMNSLKPEDTAVYYCNVKDDGQLAYHYDYWGQGTQVTVS
modifications: biotin by an amine-reactive crosslinker (only where immobilised on the SA sensor)

target: T1, SARS-CoV-2 S-RBD with Avi-tag and deca-His tag (residues 330-531) (SARS-CoV-2, UniProt P0DTC2 330-531); assay: BLI

Binder	Kd [nM]
B1	14.5
B2	47.5
B3	22.8
B4	23.3

target: T1, SARS-CoV-2 S-RBD with Avi-tag and …; assay: BLI; remark: another data set of the same source

Binder	koff [s⁻¹]
B1	0.0014
B2	0.0096
B3	0.0032
B4	0.0064
B5	0.0097
